Article PMC4325844 (Molecular Biology of the Cell, 2015)

Target: GST–PAR3-2N (UniProt Q9Z340 252-697)
Test: pull-down

Chain of GST–PAR3-2N (Q9Z340 252-697): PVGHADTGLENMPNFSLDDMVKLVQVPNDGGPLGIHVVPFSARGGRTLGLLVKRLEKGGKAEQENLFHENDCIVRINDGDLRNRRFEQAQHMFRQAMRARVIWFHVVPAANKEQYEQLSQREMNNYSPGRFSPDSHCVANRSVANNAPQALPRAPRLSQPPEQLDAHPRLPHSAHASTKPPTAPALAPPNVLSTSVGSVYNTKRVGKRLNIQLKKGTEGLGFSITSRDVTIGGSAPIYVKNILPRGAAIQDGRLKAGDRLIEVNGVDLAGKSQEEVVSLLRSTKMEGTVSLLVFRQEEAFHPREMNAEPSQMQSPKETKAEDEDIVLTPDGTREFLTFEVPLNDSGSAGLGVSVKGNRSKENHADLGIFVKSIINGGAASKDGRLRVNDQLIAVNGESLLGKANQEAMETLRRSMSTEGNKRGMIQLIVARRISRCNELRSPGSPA

- Kd: ~6 nM
B1: MBP–CLASP2-N2 (domain or fragment, UniProt O75122 310-670, looked up)
chain: SSGSVASLPQSDRSSSSSQESLNRPFSSKWSTANPSTVAGRVSAGSSKASSLPGSLQRSRSDIDVNAAAGAKAHHAAGQSVRSGRLGAGALNAGSYASLEDTSDKLDGTASEDGRVRAKLSAPLAGMGNAKADSRGRSRTKMVSQSQPGSRSGSPGRVLTTTALSTVSSGVQRVLVNSASAQKRSKIPRSQGCSREASPSRLSVARSSRIPRPSVSQGCSREASRESSRDTSPVRSFQPLASRHHSRSTGALYAPEVYGASGPGYGISQSSRLSSSVSAMRVLNTGSDVEEAVADALKKPARRRYESYGMHSDDDANSDASSACSERSYSSRNGSIPTYMRQTEDVAEVLNRCASSNWSER
